Our source for the Kd and Fold change in affinity values is patent US8618251.

For assay [1], the target named is soluble hFcγRIIA^131H (human) (UniProt P12318). The experiment in a line: SPR Biacore T100, steady state, antibody immobilised.
In assay [2] the target is soluble hFcγRIIA^131R (human) (UniProt P12318). The description is as above.
Assay [3] addresses soluble hFcγRIIB (human) (UniProt P31994). The assay is described as above.
In assay [4] the target is soluble hFcγRIIIA FV (human) (UniProt P08637). The description is as above.
Sequence of soluble hFcγRIIIA FV (human) (P08637 17-208 F176V): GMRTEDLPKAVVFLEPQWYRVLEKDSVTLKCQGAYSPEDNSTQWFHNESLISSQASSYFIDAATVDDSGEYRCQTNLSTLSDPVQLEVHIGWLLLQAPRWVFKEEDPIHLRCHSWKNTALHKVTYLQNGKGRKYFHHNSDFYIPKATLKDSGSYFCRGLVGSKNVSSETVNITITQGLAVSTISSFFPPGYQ
In assay [5] the target is soluble hFcγRIIA^131H (human) (UniProt P12318). Description: SPR Biacore T100; reference of the fold not given.
For assay [6], the target named is soluble hFcγRIIA^131R (human) (UniProt P12318). The experiment in a line: SPR Biacore T100; reference of the fold not given.
The target of assay [7] is soluble hFcγRIIB (human) (UniProt P31994). Description: SPR Biacore T100; reference of the fold not given.
Sequence of soluble hFcγRIIB (human) (P31994 43-217 limits assumed): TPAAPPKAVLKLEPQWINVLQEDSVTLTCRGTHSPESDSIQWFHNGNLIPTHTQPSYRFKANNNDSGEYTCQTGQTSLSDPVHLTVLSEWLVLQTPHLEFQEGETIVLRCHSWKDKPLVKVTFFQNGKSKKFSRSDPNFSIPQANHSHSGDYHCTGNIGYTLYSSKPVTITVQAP
Assay [8] has as its target C1q (Calbiochem) (UniProt P02745). The experiment in a line: SPR Biacore T100, steady state, antibody immobilised.
The target in assay [9] is soluble hFcγ-receptor RIa (human) (UniProt P12314). Described as above.
Sequence of soluble hFcγ-receptor RIa (human) (P12314 16-288 limits assumed): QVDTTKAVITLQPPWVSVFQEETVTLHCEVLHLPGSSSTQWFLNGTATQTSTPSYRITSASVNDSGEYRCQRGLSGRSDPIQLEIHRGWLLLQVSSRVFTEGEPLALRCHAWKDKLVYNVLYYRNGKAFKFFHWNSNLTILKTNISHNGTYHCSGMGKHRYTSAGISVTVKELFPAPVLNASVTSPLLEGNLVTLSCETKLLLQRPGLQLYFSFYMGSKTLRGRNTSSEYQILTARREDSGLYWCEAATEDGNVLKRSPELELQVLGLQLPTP
Assay [10] has as its target soluble hFcγRIIIA FF (human) (UniProt P08637). The description is as above.
The target of assay [11] is soluble hFcγ-receptor RIa (human) (UniProt P12314). Description: SPR Biacore T100; reference of the fold not given.
Assay [12] has as its target soluble hFcγRIIIA FF (human) (UniProt P08637). The experiment in a line: SPR Biacore T100; reference of the fold not given.
Assay [13] addresses soluble hFcγRIIIA FV (human) (UniProt P08637). The experiment in a line: SPR Biacore T100; reference of the fold not given.
The target in assay [14] is C1q (Calbiochem) (UniProt P02745). Description: SPR Biacore T100; reference of the fold not given.
Sequence of C1q (Calbiochem) (P02745 23-245 limits assumed, chain 1 of 3): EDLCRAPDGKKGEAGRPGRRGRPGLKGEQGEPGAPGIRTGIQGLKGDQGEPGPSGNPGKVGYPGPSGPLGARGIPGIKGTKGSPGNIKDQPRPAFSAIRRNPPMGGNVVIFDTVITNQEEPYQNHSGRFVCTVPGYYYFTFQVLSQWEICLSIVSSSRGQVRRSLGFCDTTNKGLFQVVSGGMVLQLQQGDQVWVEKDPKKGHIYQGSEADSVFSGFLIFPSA
Sequence of C1q (Calbiochem) (P02746 28-253 limits assumed, chain 2 of 3, further chain): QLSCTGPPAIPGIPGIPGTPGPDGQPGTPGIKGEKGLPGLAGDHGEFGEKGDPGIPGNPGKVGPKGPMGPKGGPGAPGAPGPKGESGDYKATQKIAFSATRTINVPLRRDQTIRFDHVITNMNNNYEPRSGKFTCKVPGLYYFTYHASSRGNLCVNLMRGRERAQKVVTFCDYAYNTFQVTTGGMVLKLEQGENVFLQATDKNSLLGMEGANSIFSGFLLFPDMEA
Sequence of C1q (Calbiochem) (P02747 29-245 limits assumed, chain 3 of 3, further chain): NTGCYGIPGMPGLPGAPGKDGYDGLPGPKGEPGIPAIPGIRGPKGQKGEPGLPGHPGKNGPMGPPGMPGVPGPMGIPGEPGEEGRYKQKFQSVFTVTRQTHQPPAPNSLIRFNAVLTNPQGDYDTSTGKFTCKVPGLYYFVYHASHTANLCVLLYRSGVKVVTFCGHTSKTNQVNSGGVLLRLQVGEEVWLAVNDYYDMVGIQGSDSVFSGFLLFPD

Sequence of soluble hFcγRIIA^131R (human) (P12318 34-217 H167R): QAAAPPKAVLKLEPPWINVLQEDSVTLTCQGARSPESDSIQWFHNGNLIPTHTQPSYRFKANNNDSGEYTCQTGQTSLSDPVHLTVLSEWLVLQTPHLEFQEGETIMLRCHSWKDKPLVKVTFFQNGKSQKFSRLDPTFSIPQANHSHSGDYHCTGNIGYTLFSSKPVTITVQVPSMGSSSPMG
Sequence of soluble hFcγRIIA^131H (human) (P12318 34-217): as the sequence (P12318 34-217 H167R) above, with R134H counted along it

Turning to “4-4-20 hIgG1 Fc mutant V211A-F243L-K326E-D399V (antibody)”, the dissociation constant Kd in assay [1] amounted to 7160 nM; in assay [2], 778 nM; in assay [3] it was 6120 nM; in assay [4], 3430 nM. In addition, the Fold change in affinity amounted to 0.6 fold in assay [5], 6.1 fold in [6] and 4 fold in assay [7].
Regarding “4-4-20 hIgG1 Fc mutant V188E-G236A-P244H-H268Y (antibody)”, the Kd in assay [8] is 405 nM; in [9] it was 17.4 nM; in assay [2], 394 nM; in assay [3], 10500 nM; in [10] it was 14000 nM; in assay [4], 5500 nM.
For “4-4-20 hIgG1 Fc mutant K205E-V211A-G237V-F243L-V273I-T366S-M428L (antibody)”, the Kd in assay [8] stood at 292 nM; in assay [9], 43.6 nM; in [1], 10000 nM; in assay [2], 851 nM; in assay [3], 13400 nM; in assay [10] it was 11600 nM. In assay [4], this substance registered an equilibrium dissociation constant (Kd) of 8990 nM. Moreover, the Fold change in affinity in assay [11] was found to be 0.4 fold; in [5], 0.4 fold; in [6], 5.6 fold; in assay [7], 1.8 fold; in assay [12], 1.2 fold; in [13], 0.4 fold.
Turning to “4-4-20 hIgG1 Fc mutant S298G-T299A (antibody)”, the Kd turned out to be 7000 nM in assay [1], 1690 nM in assay [2] and 5680 nM in assay [3]. Also, the Fold change in affinity worked out at 0.8 fold in [5], 3 fold in [6] and 1.7 fold in assay [7].
Consider 4-4-20 hIgG1 Fc mutant I332T (antibody), for which the Kd in assay [8] came out at 35.5 nM; in [1] it was 903 nM; in [3], 8540 nM; in assay [10] it was 10600 nM; in [4], 2610 nM.
“4-4-20 hIgG1 Fc mutant V215I-K326E-T359A-P396L (antibody)”: the Kd in assay [8] amounted to 137 nM; in assay [1] it was 4790 nM; in assay [2], 372 nM; in assay [3], 3210 nM; in [10], 6900 nM; in assay [4], 489 nM. The Fold change in affinity in assay [14] stood at 2.1 fold; in assay [5], 0.9 fold; in [6], 12.8 fold; in [7], 7.6 fold; in [12] it was 2.2 fold; in assay [13] it was 7.2 fold.
4-4-20 hIgG1 Fc mutant F243I (antibody): the dissociation constant (Kd) in [8] was 95.5 nM; in assay [1], 5600 nM; in assay [2], 7720 nM; in assay [3], 11800 nM; in assay [10], 9930 nM; in [4], 7050 nM. Moreover, the Fold change in affinity in [5] is 0.6 fold; in [6] it was 0.9 fold; in [7] it was 0.9 fold; in [12] it was 1.4 fold; in assay [13] it was 0.4 fold.
On to “4-4-20 hIgG1 Fc mutant P171S-S191C-G236A-K274M-T394P (antibody)”, for which the Kd in assay [8] came out at 559 nM; in assay [9] it was 11.8 nM; in assay [1] it was 513 nM; in [2], 473 nM; in assay [3], 8090 nM; in assay [10] it was 11000 nM. The Kd in assay [4] turned out to be 5570 nM. The Fold change in affinity in [14] was determined as 0.5 fold; in [11], 1.1 fold; in assay [5], 8.4 fold; in assay [6], 10.1 fold; in assay [12] it was 1.2 fold; in [13], 0.3 fold.
Take 4-4-20 hIgG1 Fc mutant S239D (antibody): the Kd in assay [8] was found to be 248 nM; in assay [1], 1460 nM; in assay [2] it was 1480 nM; in assay [10], 1690 nM; in assay [4], 307 nM. The Fold change in affinity in [14] came out at 0.6 fold; in assay [5] it was 2.3 fold; in [6], 4.9 fold; in assay [7] it was 4.3 fold; in [12], 7.4 fold; in assay [13], 5.3 fold.
As for “4-4-20 hIgG1 Fc mutant G236A-K246E-F372Y-T394A-Q419L (antibody)”, the Kd stood at 703 nM in [8]; 36.1 nM in [9]; 467 nM in [1]; 498 nM in assay [2]; 9800 nM in assay [3]; 11900 nM in [10]. The same substance gave a dissociation constant (Kd) in assay [4] of 6760 nM. Besides, the Fold change in affinity in [14] worked out at 0.4 fold; in assay [11], 0.7 fold; in assay [5], 9.2 fold; in assay [6] it was 9.6 fold; in assay [7], 2.5 fold; in assay [12], 1.1 fold. Moreover, the Fold change in affinity in assay [13] is 0.6 fold.
As for “4-4-20 hIgG1 Fc mutant G236A-F243I-I332T (antibody)”, the Kd in assay [8] was 25.7 nM; in [9], 42.3 nM; in [1], 482 nM; in [2], 944 nM; in [3] it was 16700 nM; in assay [10], 11200 nM. The same substance came in with a Kd in [4] of 7040 nM. The Fold change in affinity worked out at 0.8 fold in [14]; 0.4 fold in [11]; 8.9 fold in assay [5]; 5 fold in assay [6]; 1.5 fold in assay [7]; 1.2 fold in assay [12]. Further, the Fold change in affinity in assay [13] stood at 0.5 fold.
In the case of “4-4-20 hIgG1 Fc mutant L163P-S183G-K222E-G236A-N276D-S298G-D312G (antibody)”, the Kd turned out to be 392 nM in assay [8]; 66.6 nM in [9]; 1060 nM in assay [1]; 479 nM in [2]; 14000 nM in [3]; 15800 nM in assay [10]. The Kd in assay [4] stood at 9320 nM. Moreover, the Fold change in affinity in [11] was determined as 0.4 fold; in assay [5], 4.1 fold; in assay [6] it was 9.9 fold; in [7], 1.7 fold; in [12], 0.8 fold; in assay [13], 0.5 fold.
“4-4-20 hIgG1 Fc mutant K326E-A339T (antibody)”: the Kd worked out at 129 nM in assay [8]; 3180 nM in assay [1]; 548 nM in [2]; 2630 nM in assay [3]; 528 nM in assay [4]. In addition, the Fold change in affinity is 3.8 fold in assay [14]; 1.4 fold in assay [5]; 8.7 fold in assay [6]; 9.3 fold in [7]; 6.7 fold in assay [13].
With 4-4-20 hIgG1 Fc mutant K326E (antibody), the Kd in assay [8] is 63.3 nM; in assay [1], 1340 nM; in assay [2], 838 nM; in assay [10], 7250 nM; in assay [4], 567 nM. Also, the Fold change in affinity in assay [14] came out at 2.2 fold; in assay [5], 2.5 fold; in [6], 8.7 fold; in [7] it was 3.5 fold; in assay [13], 2.9 fold.
Turning to 4-4-20 hIgG1 Fc mutant S298G (antibody), the equilibrium dissociation constant (Kd) in assay [1] turned out to be 12900 nM; in assay [2] it was 10600 nM. The Fold change in affinity in [5] came out at 0.3 fold; in assay [6] it was 0.6 fold.
As for 4-4-20 hIgG1 Fc mutant P396L (antibody), the figures for the Kd in [1], in assay [2] and in [3] were 766 nM, 4880 nM and 6040 nM, respectively. Moreover, the Fold change in affinity is 4 fold in [5] and 1.8 fold in assay [6].
As to 4-4-20 hIgG1 Fc mutant T394P (antibody), the values for the Kd in assay [1], in assay [2] and in assay [3] were 5940 nM, 8700 nM and 10800 nM, respectively. Besides, the Fold change in affinity turned out to be 0.5 fold in [5], 1 fold in assay [6] and 1.1 fold in assay [7].
Take “4-4-20 hIgG1 Fc mutant G236A-F243I-S298G-T299A-I332T (antibody)”: the results for the Kd in assay [1], in assay [2] and in [3] were 463 nM, 312 nM and 5340 nM, respectively. For the same substance, the Fold change in affinity in assay [5] was 7.4 fold; in [6] it was 18.5 fold.
“4-4-20 hIgG1 Fc mutant P247L-M252L-V266L-Y278F-V302E-S354T (antibody)”: the figures for the Kd in assay [2], in [3] and in assay [4] were 523 nM, 785 nM and 3070 nM, respectively.
